Assay results reported in patent US20030082643A1 (Bristol-Myers Squibb, published 2003).

How the values were obtained:
[1] = molecular target: T1, soluble recombinant CD89 (human, UniProt P24071 22-227, limits assumed); experiment: ELISA
T1 construct: Soluble recombinant CD89, coated on ELISA plates, immobilised on BIAcore chips or in solution; also called sCD89; recombinant soluble CD89 antigen
Method: Solid-phase ELISA based assays were employed in the binding studies. Briefly, soluble recombinant CD89 in PBS was coated onto 96-well microtiter plates (1 μg/ml) and incubated overnight at room temperature. The plates were then washed with PBS-0.2%Tween-20 (PBST) and blocked with chicken serum albumin in PBST for 1 hour at room temperature. Supernatants from the anti-CD89 producing hybridomas or purified antibody (in PBS) were added to the wells and incubated for 2 hours at room temperature. The plates were washed with PBST as above and then incubated with 50 μl of HRP-conjugated goat-anti-human for 1 hour at room temperature. After washing, 100 μl of ABTS (150 mg 2,2′-azino-bis (3-ethylbenzthiazoline-6-sulfonic acid in 500 ml of 0.1 M citric acid, pH 4.35)/H₂O₂ (10 μl 30% H₂O₂ per 10 ml of ABTS solution) chromagen/substrate solution was added to each well and the samples read with a microplate reader at a wavelength of 405 nm.
Hybridomas which produced human IgG that bound CD89 were further characterized for isotype using ELISA (Human Kappa) (same protocol described above). […] Purified antibodies were extensively dialyzed against 0.3 M sodium carbonate buffer, pH 9.5, for labeling with […] (FITC). […]

[2] = molecular target: T2, human CD89 expressed on cells (human, UniProt P24071 22-287); experiment: flow cytometry on 2a1.6/CD89 cells, human PMNL and PMNL of human-CD89 transgenic mice
T2 construct: whole, on cells; also called FcalphaRI; 2a1.6/CD89 cells
T2 sequence (P24071 22-287): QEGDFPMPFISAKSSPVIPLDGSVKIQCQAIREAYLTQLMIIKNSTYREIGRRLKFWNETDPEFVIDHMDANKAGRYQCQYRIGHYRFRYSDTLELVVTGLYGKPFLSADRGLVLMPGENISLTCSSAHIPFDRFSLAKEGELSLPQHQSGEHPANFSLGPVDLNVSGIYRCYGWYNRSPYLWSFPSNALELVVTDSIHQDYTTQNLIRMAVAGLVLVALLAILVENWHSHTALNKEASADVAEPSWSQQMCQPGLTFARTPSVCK

T1 sequence (P24071 22-227 limits assumed): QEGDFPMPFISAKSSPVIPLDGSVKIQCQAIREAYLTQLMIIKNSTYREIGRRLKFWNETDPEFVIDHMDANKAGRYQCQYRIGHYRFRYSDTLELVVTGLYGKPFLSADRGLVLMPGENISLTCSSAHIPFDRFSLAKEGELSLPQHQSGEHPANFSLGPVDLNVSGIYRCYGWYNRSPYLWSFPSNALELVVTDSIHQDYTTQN

B1: human monoclonal antibody (HuMAb) 8.2 (antibody, V domains shown)
VH: QVQLVESGGGVVQPGRSLRLSCAASGFTFSSYAMHWVRQAPGKGLEWVAVISYDGRNKDYADSVKGRFTISRDNSKNTLYLQMNSLRAEDTAVHYCARLDWGYDAFDIWGQGTMVTVSS
VL: not shown
notes: Human IgG1 kappa from hybridoma; also called 8D2
Question: What does the source list for B1?
Answer: binding result [1]: binds; binding result [2]: binds
